The target in test [1] is IL-4 receptor (IL-4R) on C1498 tumor cells (UniProt P16382). Kind of test: cell-based or functional assay.
Test [2] addresses DT390IL-4 fusion protein (murine) (UniProt P00588). Kind of test: cell-based or functional assay.
Sequence of UniProt P00588 (P00588 33-390, tags or fused parts left off): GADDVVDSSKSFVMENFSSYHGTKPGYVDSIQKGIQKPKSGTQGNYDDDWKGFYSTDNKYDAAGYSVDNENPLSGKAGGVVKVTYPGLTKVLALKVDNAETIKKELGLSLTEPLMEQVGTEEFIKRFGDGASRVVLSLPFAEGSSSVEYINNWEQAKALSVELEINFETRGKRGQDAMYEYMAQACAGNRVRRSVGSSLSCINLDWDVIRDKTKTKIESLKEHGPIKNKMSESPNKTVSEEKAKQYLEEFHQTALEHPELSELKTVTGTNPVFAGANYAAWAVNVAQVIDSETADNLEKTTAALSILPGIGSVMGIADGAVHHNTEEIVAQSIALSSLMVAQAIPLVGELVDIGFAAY

Sequence of UniProt P16382 (P16382 26-810 limits assumed): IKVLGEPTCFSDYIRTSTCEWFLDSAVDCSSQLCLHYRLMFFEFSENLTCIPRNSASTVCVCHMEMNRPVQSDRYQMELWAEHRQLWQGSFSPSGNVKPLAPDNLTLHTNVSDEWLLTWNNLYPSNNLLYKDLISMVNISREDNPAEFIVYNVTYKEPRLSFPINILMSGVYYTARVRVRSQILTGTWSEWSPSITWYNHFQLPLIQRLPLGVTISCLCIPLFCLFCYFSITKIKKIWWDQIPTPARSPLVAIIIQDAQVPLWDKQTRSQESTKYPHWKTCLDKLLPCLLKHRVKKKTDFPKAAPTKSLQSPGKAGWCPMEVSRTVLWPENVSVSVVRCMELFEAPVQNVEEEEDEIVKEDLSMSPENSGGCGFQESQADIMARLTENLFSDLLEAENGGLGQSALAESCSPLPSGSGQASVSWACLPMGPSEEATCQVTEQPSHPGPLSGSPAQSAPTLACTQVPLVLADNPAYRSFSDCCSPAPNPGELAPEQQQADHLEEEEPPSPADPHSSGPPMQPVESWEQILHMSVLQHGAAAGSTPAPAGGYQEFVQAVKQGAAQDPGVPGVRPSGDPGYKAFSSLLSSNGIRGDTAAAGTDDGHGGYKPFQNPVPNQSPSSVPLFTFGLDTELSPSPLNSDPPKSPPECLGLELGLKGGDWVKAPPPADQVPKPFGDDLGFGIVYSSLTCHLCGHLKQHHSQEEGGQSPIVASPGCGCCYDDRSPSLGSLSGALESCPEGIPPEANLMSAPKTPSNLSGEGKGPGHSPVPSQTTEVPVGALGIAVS

In test [1], “DT390IL-4 fusion protein (from UniProt P00588 33-390; P07750 21-140)” had a viability of C1498 cells of 10 nM and a viability of IL-4R+ C1498 leukemia cells (trypan blue, live cell count) of 1 nM.

The substance “rat IgG1 anti-mouse IL-4 monoclonal antibody (Clone 11B11)” came in with a blocking of C1498 killing by DT390IL-4 in test [2] of 20 µM.

Values taken from patent US7101542.
